Where two headings read alike, the source gives them in different places.
What was measured:
[1] = molecular target: IL-2 receptor βγ (Homo sapiens) (UniProt P14784); conditions: cited from earlier work
[2] = molecular target: biotinylated mouse IL-2Rα (mIL-2Rα ectodomain with C-terminal biotin acceptor peptide) (mouse); experiment: SPR
[3] = molecular target: biotinylated mouse IL-2Rα (mIL-2Rα ectodomain with C-terminal biotin acceptor peptide) (mouse); experiment: SPR; remark: listed apart in the source
[4] = molecular target: mouse IL-2 (mIL-2, amino acids 1–149), hexahistidine-tagged (Mus musculus, UniProt P04351); experiment: SPR
Chain of mouse IL-2 (mIL-2, amino acids 1–149), hexahistidine-tagged (P04351 21-169): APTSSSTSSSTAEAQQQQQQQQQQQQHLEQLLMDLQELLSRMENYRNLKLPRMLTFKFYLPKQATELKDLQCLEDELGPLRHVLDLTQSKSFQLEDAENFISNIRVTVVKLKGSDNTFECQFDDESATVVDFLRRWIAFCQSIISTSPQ

Chain of JES6–1 immunocytokine (IL-2 tethered to the N-terminus of the JES6–1 antibody light chain) (P04351 whole entry, looked up): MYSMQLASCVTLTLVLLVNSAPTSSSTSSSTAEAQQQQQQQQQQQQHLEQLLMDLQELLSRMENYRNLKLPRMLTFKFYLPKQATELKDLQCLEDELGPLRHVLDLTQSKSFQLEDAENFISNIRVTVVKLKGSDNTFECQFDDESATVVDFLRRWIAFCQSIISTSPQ
Chain of IL-2 (P60568 21-153): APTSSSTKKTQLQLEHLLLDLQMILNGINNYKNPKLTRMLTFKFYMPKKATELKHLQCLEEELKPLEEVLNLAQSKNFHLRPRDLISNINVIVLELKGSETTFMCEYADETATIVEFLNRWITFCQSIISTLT
Chain of JES6–1 immunocytokine mutant H100A (VL) (P04351 whole entry, looked up, stated change not applied): as the sequence (P04351 whole entry, looked up) above
Chain of JES6–1 immunocytokine double mutant S34A+Y41A (VL) (P04351 whole entry, looked up, stated change not applied): as the sequence (P04351 whole entry, looked up) above
Chain of JES6–1 immunocytokine mutant R62A (VH) (P04351 whole entry, looked up, stated change not applied): as the sequence (P04351 whole entry, looked up) above
Chain of JY3 immunocytokine (JES6–1 immunocytokine double mutant Y41A+Y101A, VL) (P04351 whole entry, looked up, stated change not applied): as the sequence (P04351 whole entry, looked up) above
Chain of JES6–1 immunocytokine mutant D58A (VH) (P04351 whole entry, looked up, stated change not applied): as the sequence (P04351 whole entry, looked up) above
Chain of JES6–1 immunocytokine mutant Y41A (VL) (P04351 whole entry, looked up, stated change not applied): as the sequence (P04351 whole entry, looked up) above
Chain of JES6–1 immunocytokine mutant S34A (VL) (P04351 whole entry, looked up, stated change not applied): as the sequence (P04351 whole entry, looked up) above
Chain of JES6–1 immunocytokine mutant E60A (VH) (P04351 whole entry, looked up, stated change not applied): as the sequence (P04351 whole entry, looked up) above
Chain of JES6–1 immunocytokine double mutant S34A+Y101A (VL) (P04351 whole entry, looked up, stated change not applied): as the sequence (P04351 whole entry, looked up) above
Chain of JES6–1 immunocytokine triple mutant S34A+Y41A+Y101A (VL) (P04351 whole entry, looked up, stated change not applied): as the sequence (P04351 whole entry, looked up) above
Chain of JES6–1 immunocytokine mutant D55A (VH) (P04351 whole entry, looked up, stated change not applied): as the sequence (P04351 whole entry, looked up) above
Chain of JES6–1 immunocytokine mutant Y101A (VL) (P04351 whole entry, looked up, stated change not applied): as the sequence (P04351 whole entry, looked up) above
Chain of IL-2 receptor βγ (Homo sapiens) (P14784 27-240, chain 1 of 2): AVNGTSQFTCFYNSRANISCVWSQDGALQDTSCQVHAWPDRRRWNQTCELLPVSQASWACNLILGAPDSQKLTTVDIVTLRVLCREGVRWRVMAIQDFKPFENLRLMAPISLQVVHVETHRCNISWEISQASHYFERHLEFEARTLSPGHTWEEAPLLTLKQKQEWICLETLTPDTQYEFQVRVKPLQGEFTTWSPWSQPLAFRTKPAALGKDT
Chain of IL-2 receptor βγ (Homo sapiens) (P31785 23-262, chain 2 of 2, further chain): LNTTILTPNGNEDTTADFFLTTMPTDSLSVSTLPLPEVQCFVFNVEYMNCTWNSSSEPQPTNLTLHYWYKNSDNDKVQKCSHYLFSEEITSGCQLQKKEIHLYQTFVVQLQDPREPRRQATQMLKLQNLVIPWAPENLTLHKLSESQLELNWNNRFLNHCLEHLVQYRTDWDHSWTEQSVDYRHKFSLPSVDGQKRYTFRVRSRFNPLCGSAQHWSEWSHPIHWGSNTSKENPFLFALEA

| Molecule | Kd [2] [nM] | Kd [4] [nM] | also measured |
| --- | --- | --- | --- |
| IL-2 (from UniProt P60568) | – | – | Kd [1]: 1 nM |
| JES6–1 immunocytokine (IL-2 tethered to the N-terminus of the JES6–1 antibody light chain) (from UniProt P04351 21-169) | 290 | – | Kd [3]: 220 nM |
| JES6–1 immunocytokine double mutant S34A+Y41A (VL) (from UniProt P04351 21-169) | – | – | Kd [3]: 210 nM |
| JES6–1 immunocytokine double mutant S34A+Y101A (VL) (from UniProt P04351 21-169) | – | – | Kd [3]: 82 nM |
| JES6–1 immunocytokine mutant D55A (VH) (from UniProt P04351 21-169) | 230 | – | – |
| JES6–1 immunocytokine mutant D58A (VH) (from UniProt P04351 21-169) | 260 | – | – |
| JES6–1 immunocytokine mutant E60A (VH) (from UniProt P04351 21-169) | 210 | – | – |
| JES6–1 immunocytokine mutant S34A (VL) (from UniProt P04351 21-169) | 170 | – | – |
| JES6–1 immunocytokine mutant Y101A (VL) (from UniProt P04351 21-169) | 140 | – | – |
| JES6–1 immunocytokine triple mutant S34A+Y41A+Y101A (VL) (from UniProt P04351 21-169) | – | – | Kd [3]: 130 nM |
| JY3 immunocytokine (JES6–1 immunocytokine double mutant Y41A+Y101A, VL) (from UniProt P04351 21-169) | – | – | Kd [3]: 82 nM |
| biotinylated JES6–1 antibody mutant D55A (VH) (antibody, V domains shown) VH: EIQLQQSGPELRRPGSSVKLSCKASGYNITDYLIHWVRHRPEHGLEWIGWIAPEDGETRYAQKFQSKATLTADTSSNAAYMQLSSLTPEDTATYFCARSLDSTYIYPFAYWGQGTLVTVSS VL: DIVMTQSPFSLAVSEGEMVTINCKSSQSLLSSGNQKNYLAWYQQKPGQSPKLLIYYASTGQSGVPDRFIGSGSGTDFTLTISDVQAEDLADYYCLQHYISPPTFGAGTKLELK | – | 500 | – |
| biotinylated JES6–1 antibody mutant H100A (VL) (antibody, V domains shown) VH: EIQLQQSGPELRRPGSSVKLSCKASGYNITDYLIHWVRHRPEHGLEWIGWIDPEDGETRYAQKFQSKATLTADTSSNAAYMQLSSLTPEDTATYFCARSLDSTYIYPFAYWGQGTLVTVSS VL: DIVMTQSPFSLAVSEGEMVTINCKSSQSLLSSGNQKNYLAWYQQKPGQSPKLLIYYASTGQSGVPDRFIGSGSGTDFTLTISDVQAEDLADYYCLQAYISPPTFGAGTKLELK | – | 62 | – |
| biotinylated JES6–1 antibody mutant R62A (VH) (antibody, V domains shown) VH: EIQLQQSGPELRRPGSSVKLSCKASGYNITDYLIHWVRHRPEHGLEWIGWIDPEDGETAYAQKFQSKATLTADTSSNAAYMQLSSLTPEDTATYFCARSLDSTYIYPFAYWGQGTLVTVSS VL: DIVMTQSPFSLAVSEGEMVTINCKSSQSLLSSGNQKNYLAWYQQKPGQSPKLLIYYASTGQSGVPDRFIGSGSGTDFTLTISDVQAEDLADYYCLQHYISPPTFGAGTKLELK | – | 4.3 | – |
| biotinylated JES6–1 antibody mutant D58A (VH) (antibody, V domains shown) VH: EIQLQQSGPELRRPGSSVKLSCKASGYNITDYLIHWVRHRPEHGLEWIGWIDPEAGETRYAQKFQSKATLTADTSSNAAYMQLSSLTPEDTATYFCARSLDSTYIYPFAYWGQGTLVTVSS VL: DIVMTQSPFSLAVSEGEMVTINCKSSQSLLSSGNQKNYLAWYQQKPGQSPKLLIYYASTGQSGVPDRFIGSGSGTDFTLTISDVQAEDLADYYCLQHYISPPTFGAGTKLELK | – | 200 | – |

More lines, main results first:

| Kd [2] [nM] | Kd [4] [nM] | Molecule | also measured |
| --- | --- | --- | --- |
| 240 | – | JES6–1 immunocytokine mutant H100A (VL) (from UniProt P04351 21-169) | – |
| 190 | – | JES6–1 immunocytokine mutant R62A (VH) (from UniProt P04351 21-169) | – |
| 130 | – | JES6–1 immunocytokine mutant Y41A (VL) (from UniProt P04351 21-169) | – |
| – | 6.5 | biotinylated JES6–1 antibody mutant S34A (VL) (antibody, V domains shown) VH: EIQLQQSGPELRRPGSSVKLSCKASGYNITDYLIHWVRHRPEHGLEWIGWIDPEDGETRYAQKFQSKATLTADTSSNAAYMQLSSLTPEDTATYFCARSLDSTYIYPFAYWGQGTLVTVSS VL: DIVMTQSPFSLAVSEGEMVTINCKSSQSLLASGNQKNYLAWYQQKPGQSPKLLIYYASTGQSGVPDRFIGSGSGTDFTLTISDVQAEDLADYYCLQHYISPPTFGAGTKLELK | – |
| – | 6.4 | biotinylated JES6–1 antibody mutant Y41A (VL) (antibody, V domains shown) VH: EIQLQQSGPELRRPGSSVKLSCKASGYNITDYLIHWVRHRPEHGLEWIGWIDPEDGETRYAQKFQSKATLTADTSSNAAYMQLSSLTPEDTATYFCARSLDSTYIYPFAYWGQGTLVTVSS VL: DIVMTQSPFSLAVSEGEMVTINCKSSQSLLSSGNQKNALAWYQQKPGQSPKLLIYYASTGQSGVPDRFIGSGSGTDFTLTISDVQAEDLADYYCLQHYISPPTFGAGTKLELK | – |
| – | 12 | biotinylated JES6–1 antibody mutant Y101A (VL) (antibody, V domains shown) VH: EIQLQQSGPELRRPGSSVKLSCKASGYNITDYLIHWVRHRPEHGLEWIGWIDPEDGETRYAQKFQSKATLTADTSSNAAYMQLSSLTPEDTATYFCARSLDSTYIYPFAYWGQGTLVTVSS VL: DIVMTQSPFSLAVSEGEMVTINCKSSQSLLSSGNQKNYLAWYQQKPGQSPKLLIYYASTGQSGVPDRFIGSGSGTDFTLTISDVQAEDLADYYCLQHAISPPTFGAGTKLELK | – |
| – | 56 | biotinylated JES6–1 antibody mutant E60A (VH) (antibody, V domains shown) VH: EIQLQQSGPELRRPGSSVKLSCKASGYNITDYLIHWVRHRPEHGLEWIGWIDPEDGATRYAQKFQSKATLTADTSSNAAYMQLSSLTPEDTATYFCARSLDSTYIYPFAYWGQGTLVTVSS VL: DIVMTQSPFSLAVSEGEMVTINCKSSQSLLSSGNQKNYLAWYQQKPGQSPKLLIYYASTGQSGVPDRFIGSGSGTDFTLTISDVQAEDLADYYCLQHYISPPTFGAGTKLELK | – |

Reference: paper PMC6173196 (Journal of immunology (Baltimore, Md. : 1950), 2018)
